Here are results for four molecules from patent US20240034778A1 (REGENTS OF THE UNIVERSITY OF MICHIGAN, published 2024).

Where a chain is given by its changes, count along the chain named.

Assay [1] addresses T1, Aβ fibrils (fibrils of Aβ1-42) (UniProt P05067 672-713).
T1 construct: domain: Aβ1-42; Fibrillar (aggregated) state of synthetic Aβ1-42; For flow cytometry the fibrils were doped with 1% biotinylated Aβ1-42 and held on streptavidin Dynabeads; for dot blots unlabeled fibrils were spotted on nitrocellulose; also called Aβ42 fibrils; fibrillar Aβ
As to the kind of experiment: immunodot blot, antibody at 10 nM, 30 second exposure. As for the experimental part: (§1) FIG. 6A includes images of an immunoblot analysis of the conformational and sequence specificity of the selected Aβ antibodies. Disaggregated Aβ and fibrillar Aβ, IAPP, and αSyn were immobilized on nitrocellulose membranes and probed with anti-Aβ antibodies (10 nM in PBS with 1% milk). The blots were imaged after relatively short exposure times (30 seconds) except for AF1 (45 minute exposure). A loading control blot was detected using colloidal silver stain. The experiments were repeated three times and a representative example is shown. FIG. 6B includes images of immunoblot analysis of the conformational and sequence specificity of the selected Aβ antibodies using a long exposure time. The blots were processed and imaged as described in FIG. 6A except that all of the blots were processed after a relatively long exposure time (45 minutes). A loading control blot was detected using colloidal silver stain. The experiments were repeated three times and a representative example is shown.
(§2) The conformational specificity of the selected antibodies was then assessed using immunodot blots (FIG. 6A).

For assay [2], the target named is T2, disaggregated Aβ (Aβ1-42) (UniProt P05067 672-713).
T2 construct: domain: Aβ1-42; Same peptide as the fibrils, in the disaggregated (soluble) state; also called soluble Aβ; Aβ monomer
Nature of the assay: immunodot blot, antibody at 10 nM, 45 minute exposure. The protocol:
as §1, §2

The target of assay [3] is T1, Aβ fibrils (fibrils of Aβ1-42). Nature of the assay: flow cytometry, antibody on Aβ fibril-coated streptavidin beads (fibril batch of FIG. 5). The protocol: (§3) For affinity analysis, the binding of antibodies to Aβ fibrils was evaluated using streptavidin dynabeads and flow cytometry. Beads were immobilized with 1% biotinylated fibrils as described above. The fibril-coated beads were washed twice with PBSB and then blocked with 10% milk in PBS at room temperature for 1 hour with end-over-end mixing. Afterward, the beads were washed 2× with PBSB.
(§4) Antibodies were thawed and centrifuged at 21000× g for 5 minutes to remove aggregates. The supernatant was transferred to a new tube and the antibody concentration was determined by measuring absorbance at 280 nm. Antibody dilutions were made in PBSB. Fibril-coated beads (1.25×10⁵ beads per evaluated antibody concentration) were incubated with antibodies in 96 well plates (Greiner, 650261) in 1% milk for 3 hours at 25° C.(300 RPM). Next, the plates were centrifuged at 3500 RPM for 5 minutes, the supernatants were discarded, and the beads were washed once with ice-cold PBSB. After washing, the plates were spun down again and the beads with resuspended with 300× diluted goat anti-human Fc AF647 (Jackson Immunoresearch, 109-605-098) on ice for 4-5 minutes. […] Two independent repeats were performed with different batches of beads coated with Aβ fibrils.
(In general: A flow cytometer gives signals particle by particle.)

Assay [4] has the same target. As to the kind of experiment: flow cytometry, antibody on Aβ fibril-coated streptavidin beads (fibril batch of FIG. 10). As for the experimental part: as §3, §4
For assay [5] the target is unchanged. As to the kind of experiment: flow cytometry, antibody on Aβ fibril-coated streptavidin beads. The protocol:
as §3, §4

B1: Clone 101 (Fc fusion)
VH: EVQLVESGGGLVQPGGSLRLSCAASGFNIKDTYIHWVRQAPGKGLEWVARIYPASGSTRYAGSVKGRFTISADTSKNTAYLQMNSLRAEDTAVYYCARDGYDGSYFVGYDYNDFYDYWGQGTLVTVSS
VL: DIQMTQSPSSLSASVGDRVTITCRASQNVYSAVTWYQQKPGKAPKLLIYSASFLYSGVPSRFSGSRSGTDFTLTISSLQPEDFATYYCQQHSTYPPTFGQGTKVEIK
As for B1, the binding result in assay [1] and in assay [2] was “binds” each time.

B2: Clone 97 (Fc fusion)
VH: B1 VH with S57A, G62D
VL: B1 VL with Y30A, S31Y
notes: also called parental antibody (clone 97); 97 WT
For B2, the EC50 (as a rule, the concentration at which the effect is half-maximal) in assay [3] was found to be 8 nM; in assay [4], 18 nM.

B3: Clone 93 (Fc fusion)
VH: B1 VH with A54S, S55N, S57Y
VL: B1 VL with S31N, S92N
Consider B3, for which the binding result in assay [1] and in assay [2] was “binds” each time.

B4: crenezumab (antibody, V domains shown)
VH: EVQLVESGGGLVQPGGSLRLSCAASGFTFSSYGMSWVRQAPGKGLELVASINSNGGSTYYPDSVKGRFTISRDNAKNSLYLQMNSLRAEDTAVYYCASGDYWGQGTTVTVSS
VL: DIVMTQSPLSLPVTPGEPASISCRSSQSLVYSNGDTYLHWYLQKPGQSPQLLIYKVSNRFSGVPDRFSGSGSGTDFTLKISRVEAEDVGVYYCSQSTHVPWTFGQGTKVEIKR
Turning to B4, it took 9 nM to reach a half-maximal effect in assay [5] (EC50).
